IntAct's records for PubMed 11846417

How the values were obtained:
actn2_human ACTN2 = actn2_human ACTN2 (UniProt P35609)
telt_human TCAP = telt_human TCAP (UniProt O15273)
telt_human TCAP, sequence (O15273 whole entry): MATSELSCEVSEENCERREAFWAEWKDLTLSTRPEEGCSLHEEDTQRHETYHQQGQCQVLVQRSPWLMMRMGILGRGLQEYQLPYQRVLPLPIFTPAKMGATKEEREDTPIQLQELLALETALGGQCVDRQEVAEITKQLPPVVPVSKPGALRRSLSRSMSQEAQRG

actn2_human ACTN2, sequence (P35609 whole entry): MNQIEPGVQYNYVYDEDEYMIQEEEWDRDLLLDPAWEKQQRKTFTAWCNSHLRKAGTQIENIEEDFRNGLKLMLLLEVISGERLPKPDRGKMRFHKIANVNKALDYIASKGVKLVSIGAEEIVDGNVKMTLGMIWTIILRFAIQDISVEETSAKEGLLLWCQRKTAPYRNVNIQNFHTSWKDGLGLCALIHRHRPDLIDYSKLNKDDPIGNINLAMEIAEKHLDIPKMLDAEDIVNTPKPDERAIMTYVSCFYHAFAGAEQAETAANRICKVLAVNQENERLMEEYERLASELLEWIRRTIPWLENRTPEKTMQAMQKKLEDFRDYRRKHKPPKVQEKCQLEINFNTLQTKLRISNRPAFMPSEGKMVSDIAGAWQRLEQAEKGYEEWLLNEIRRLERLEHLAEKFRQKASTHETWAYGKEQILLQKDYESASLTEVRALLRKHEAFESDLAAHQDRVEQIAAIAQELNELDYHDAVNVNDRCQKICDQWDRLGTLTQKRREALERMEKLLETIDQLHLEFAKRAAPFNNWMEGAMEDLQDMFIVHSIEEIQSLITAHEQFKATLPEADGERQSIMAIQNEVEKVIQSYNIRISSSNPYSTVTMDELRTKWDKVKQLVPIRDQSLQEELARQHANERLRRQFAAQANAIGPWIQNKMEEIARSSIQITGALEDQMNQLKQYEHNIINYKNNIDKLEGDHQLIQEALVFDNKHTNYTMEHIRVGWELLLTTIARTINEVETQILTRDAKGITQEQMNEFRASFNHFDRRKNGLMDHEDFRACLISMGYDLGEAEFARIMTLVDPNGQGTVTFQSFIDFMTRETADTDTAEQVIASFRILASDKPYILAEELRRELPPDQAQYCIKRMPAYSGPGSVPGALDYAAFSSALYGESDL

Substance	effect of a mutation on the interaction (actn2_human ACTN2)	effect of a mutation on the interaction (telt_human TCAP)
Titin (Homo sapiens), Q8WZ42 A743V	decreasing interaction	–
Titin (Homo sapiens), Q8WZ42 V54M	–	decreasing interaction
